From article PMC7911018, “Effect of Humanizing Mutations on the Stability of the Llama Single-Domain Variable Region” (Biomolecules, 2021) come the findings set out here.

The target in this experiment is T1, HER2 ectodomain-Fc (96 kDa) (Homo sapiens, UniProt P04626).
T1 construct: human epidermal growth factor receptor 2 (HER2), ectodomain; also called extracellular domain of HER2; human epidermal growth factor receptor 2
The experiment can be described thus: SPR; Biacore T100, 25 °C; HER2 ectodomain-Fc amine-coupled on a CM5 chip at 1270 RU; VHHs injected as analytes at 7 concentrations between 250 and 3.5 nM in 20 mM Hepes, 150 mM NaCl, 3 mM EDTA, 0.005% Tween 20, pH 7.4; 1:1 Langmuir fit. To be noted: both partners purified. (Surface plasmon resonance follows binding to a sensor surface in real time, without labels.)

B1: VHH A10 (anti-HER2 nanobody) (VHH)
VHH: DVQLQASGGGFVQPGGSLRLSCAASGATSNISNMGWFRQAPGKEREFVSAISRAESRPLYYADSVKGRFTISRDNSKNTVYLQMNSLRAEDTATYYCAYMPLVRHKAYWGQGTQVTVSS
notes: anti-HER2 VHH from a synthetic library with camelid FW2 hallmarks FERF; also called A10 wt; source: expressed in bacteria, purified (IMAC, SEC)
With B1, the binding result is reported as “binds”.
